Data from the nanobody polyreactivity screen of Harvey et al. (2022).

Test: yeast display, Sf9 membrane polyspecificity reagent, FACS + sequencing; frameworks hold sequencing errors
Summary of the method: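 After 36–48 hours of galactose induction, yeast (Saccharomyces cerevisiae BJ5465) displaying a synthetic nanobody library were stained at 4 °C for 1 hour with 10% biotinylated, detergent-solubilized Sf9 membrane reagent. Streptavidin microbeads enriched the stained cells before FACS sorting into low and high (top ~1%) gates on anti-HA and streptavidin fluorescence. Each clone's polyreactivity label reflects its gate of origin.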

Row | Sequence | polyreactivity (PSR sort gate)
1 | QVQLVESGGGLVQAGGSLRLSCAASGSIAHYAMGWYRQAPGKERELVAAINWSGGSTNYADSVKGRFTISRDNAKNTVYLQMNSLKPEDTAVYYCNAAGGYKPYLQDVASRYDYWGQGTQVTVSS | high polyreactivity
2 | QVQLVESGGGLVQAGGSLRLSCAASGSIAKINAMGWYRQAPGKERELVAAINTGDSTYYADSVKGRFTISRDNAKNTVYLQMNSLKPEDTAVYYCAAEGSPNGYDYWGQGTQVTVSS | low polyreactivity
3 | QVQLVESGGGLVQAGGSLRLSCAASGSICGTYAMGWYRQAPGKERELVARITRGVSTNYADSVKGRFTISRDNAKNTVYLQMTSLKPEDTAVYYCAAESGNRYEYWGQGTQVTVSS | low polyreactivity
4 | QVQLVESGGGLVQAGGSLRLSCAASGSICVRNAMGWYRQAPGKERELVAADSVKGRFTISRDNAKNTVYLQMNSLKPEDTAVYYCNKAYIIRRGPIVYYGFDYWGQGTQVTVSS | low polyreactivity
5 | QVQLVESGGGLVQAGGSLRLSCAASGSIDGRYAMGWYRQAPGKERELVAVITSGGSTNYADSVKGRFTISRDNAKNTVYLQMKSLKPEDTAVYYCAVRPYALHRLADQPGGDDYWGQGTQVTVSS | low polyreactivity
6 | QVQLVESGGGLVQAGGSLRLSCAASGSIDRFYAMGWYRQAPRKERDLVAFITSTGRTYYADSVKGRFTISRDNAKNTVYLQMNSLKPEDTAVYYCAAGYPKRVAYLWFSQYDYWGKGTQVTVSS | low polyreactivity
7 | QVQLVESGGGLVQAGGSLRLSCAASGSIFAANALGWYRQAPGKERELVAAITSGGGSTYYADSVKGRFTISRDNAKNTVYLQMNSLKPEDTAVYYCAARSLVQDHAYGNNYWGQGTQVTVSS | low polyreactivity
8 | QVQLVESGGGLVQAGGSLRLSCAASGSIFADYAMGWYRQAPGKERELVSAITGSGGRTYYADSVKGRFTISRDNAKNTLYLQMNSLKPEDTAVYYCAADGLSNVRQMDYWGQGTQVTVSS | low polyreactivity
9 | QVQLVESGGGLVQAGGSLRLSCAASGSIFAFNAMGWYRQAPGKERELVAAMSGSGARTYYADSVKGRFTTSRDNAKNTVYLQLNSLKPEDTAVYYCARPYGYGYDYWGQGTQVTVSS | high polyreactivity
10 | QVQLVESGGGLVQAGGSLRLSCAASGSIFAFYAKGWYRQAPGKERELVAYITSGGSTYYADSVKGRFTISRDNAKNNVYLQMNSLKPEDTAVYYFNSVYYSALVSGGETTIKRRYYWGQGTQVTVSS | high polyreactivity
11 | QVQLVESGGGLVQAGGSLRLSCAASGSIFAGHAMGWSIQAPGKERELVAAISRRGGNTYYADSVKGRFTISRDNAKNTVYLQMNSLKPEDTAVYYCAVRSRLYSSSIAYDYWGQGTQVTVSS | high polyreactivity
12 | QVQLVESGGGLVQAGGSLRLSCAASGSIFAGYAMGWYRQAPGKERELVAAITSRGGNTYYADSVKGRFTISRDNAKNTVYLQMNSLKPEDTAVYYCAADVTRWSWVGTHYYWGQGTQVTVSS | high polyreactivity
13 | QVQLVESGGGLVQAGGSLRLSCAASGSIFAHYAMGWYRQAPGKERELVARISWSGGSTYYADSVKGRFTISRDNEKNTVYLQKNSMKPEDTAVYYCARAGRSWDTLYKYYLEHDYWGQGTQVTVSS | low polyreactivity
14 | QVQLVESGGGLVQAGGSLRLSCAASGSIFAINAMGWDRQAPGKERELVAAITRGGSTYADSVKGRFTISRDNAKNTVYLQINSLKPEDTAVYYCAARWYRRGNGFNYWGQCTQVTVSS | high polyreactivity
15 | QVQLVESGGGLVQAGGSLRLSCAASGSIFAIYAMGWYRQAPGKERELVAAISSSSGSTYYADSVKARFTISRDNAKNTVYLQMYSLKPEDTAVYYCAAESGRRIKYWRGYYYWGQGTQVTVSS | low polyreactivity
16 | QVQLVESGGGLVQAGGSLRLSCAASGSIFAKNAMGWYRQAPGKERELVAGIDFSGGSTYSADSVKGRFTISRDNAQNTVYLQMNSLKPEDTAVDYCAADWAYKYELDYWGQGTQVTVSS | low polyreactivity
17 | QVQLVESGGGLVQAGGSLRLSCAASGSIFALYAMGWSRQEPGKEREFVAAISYRGGRTYYADSVKGRFTISRDNAKNTVYLQMNSLKPEDTAVYYCDTDFPGKFDYWGQGTQVTVSS | low polyreactivity
18 | QVQLVESGGGLVQAGGSLRLSCAASGSIFANYAMGWYRQAPGKERELVAAITFSSGDSTYYADSVKGRFTISRDNAKNTVYLQMNSLKPEDTAVDYCATVTYGWSGYDYWGQGTQVTVSS | low polyreactivity
19 | QVQLVESGGGLVQAGGSLRLSCAASGSIFAPYVMGWYRQAPGKERELVAAITESGGRTYYADSVKGRFTISRDNAKNTVYLQMNSLKPEDTAVYYCAARTYDRNRQLRRQWYDYWGQGTQVTVSS | high polyreactivity
20 | QVQLVESGGGLVQAGGSLRLSCAASGSIFARYAMGWYRQAPGKERELVATITRGGSTNYADSVKGRFTISRDNAKNTVYLQMNSLKPEDTAVYYCARTSYGRLDYWGQGTQVTVSS | low polyreactivity
21 | QVQLVESGGGLVQAGGSLRLSCAASGSIFARYTMGWYRQAPGKERELVAAISTSGSRTYYADSVKGRFTISRDNAKNCVYLLMNSLKPEDTAVYYCNVAWIWGKYDYWGPGTQVTVSS | high polyreactivity
22 | QVQLVESGGGLVQAGGSLRLSCAASGSIFASNAMGWYRQAPGKERELVADISGTTGSTYYADSVKGRFTISRDNAKNTVYLQMNSLKPEDTAVYYCAADLVWVSTSYYYWGQGTLVTVSS | low polyreactivity

Row | Sequence | polyreactivity (PSR sort gate)
23 | QVQLVESGGGLVQAGGSLRLSCAASGSIFASNAMGWYSPAPGKERELVAAINSGDSTNYADSVKGRFTISRDNAKNTVYLQMNSLKPEDTAVYYCARGLEERYDYWGQGTQVTVSS | low polyreactivity
24 | QVQLVESGGGLVQAGGSLRLSCAASGSIFASYAMGWYRQAPGKERELVAAISRSGTSTRYADSVKGRFTISRDNAKNTVYLLMNSLKPEDTAVYYCAARWYVFFRKYDYWGQGTQVTVSS | high polyreactivity
25 | QVQLVESGGGLVQAGGSLRLSCAASGSIFASYGLGWYRQAPGKARELVAAITSRGTSTYYADSVKGRFTISRDNAKNTVDLQMHSLKPEETAVYYCAARLYGSAPQHEYWGQGTQVTVSS | low polyreactivity
26 | QVQLVESGGGLVQAGGSLRLSCAASGSIFATYAMGWYRQAPGKERELVAAITASDGSTNYADSVKGRFTLSRDNAQNTVYLQMNSLKPEDTAVYYCATDAPYRTDSDSGFDAGYDYWGQGTQVTLSS | low polyreactivity
27 | QVQLVESGGGLVQAGGSLRLSCAASGSIFAVNAMGWYRQAPGKERELVASITSGGSTNYADSVKGRFTISRDNAKNTVYLQMNSLKPEDTAVYYCNADRVRAVSRYDYWGQGTQLTVSS | low polyreactivity
28 | QVQLVESGGGLVQAGGSLRLSCAASGSIFAVYAMGWYRQAPGKERELVAVITRSGGSTYYADSVKGRFTISRDNAKNTVYLQMNSLKPEDTAVYYCAARTGYGYTRYEYWGQGTQVTVSS | high polyreactivity
29 | QVQLVESGGGLVQAGGSLRLSCAASGSIFAVYAMGWYRQAPGKERELVAVITRSGGSTYYADSVKGRFTISRDNAKNTVYLQMNTLKPEDTADYYCAARTGYGYTRYEYWGQGTQVTVSS | high polyreactivity
30 | QVQLVESGGGLVQAGGSLRLSCAASGSIFAWYAMGWYRQAPGKERELVADITQSGGSTYYADSVKGRFTISRDNAKNTVYLQMNSLKPEDTAVYYCVDYWYNYLQSGWEDDYWGQGTQVTVSS | low polyreactivity
31 | QVQLVESGGGLVQAGGSLRLSCAASGSIFAWYGMGWSRQAPGKERELVAAISTAGSTNYADSVKGRFTISRDNAKNTVYFQMNSLKPEDTAVYYCAKKSSWYYPERFDYWGQGTQVTVSS | low polyreactivity
32 | QVQLVESGGGLVQAGGSLRLSCAASGSIFAYNAMGWYRQAPGKERELVAAITISGGRTYYADSVKGRFTISRDNAKNTVYLQMNSLKPEDTAVYYCAARYPSGTRKWYGYWGQGTQVTVSS | high polyreactivity
33 | QVQLVESGGGLVQAGGSLRLSCAASGSIFAYNAMGWYRQAPGKERELVASISTGDSTNYADSVKGRFTISRENAKNTDYLQMNSMKPEDTAVYYCNADSYPYYVYGSNVYWGQGSQVTVSS | low polyreactivity
34 | QVQLVESGGGLVQAGGSLRLSCAASGSIFAYYAMGWSRQAPGKERELVASIDWSGDLYVRDSVKGRFTISRDNAKNTVYLQMNSLKPEDTAVYYCAADVGFGVVFYDYWGQGTQVTVSS | low polyreactivity
35 | QVQLVESGGGLVQAGGSLRLSCAASGSIFAYYAMGWYRQAPGKERELVADITSSGGITYYADSVKGRFTISRDNAKNTVYLQMNSLKPEDTAVYYCNADSWAIGGGSYPYDYWGQGTQVTVSS | low polyreactivity
36 | QVQLVESGGGLVQAGGSLRLSCAASGSIFCSYAMAWYRQAPGKERELVASITRSGGSTYYADSVKGRFTISRDNAKNTVYLQMNSLKPEDTAVYYCNARRTTRWGSSKYEYDYWGQGTQVTVSS | high polyreactivity
37 | QVQLVESGGGLVQAGGSLRLSCAASGSIFCSYAMGWYRQAPGKERELVAAITWSGGNTYADSVKGRFTISRDNAKNTDYLQMNSLKPEDTAVYYCAADPAHGTKWYVYPSHDDYWGQGTQGTVSS | low polyreactivity
38 | QVQLVESGGGLVQAGGSLRLSCAASGSIFDAYAMGWYRQATGKERELVAAITYSGGSTYYADSVKGRFTISRDNAKNTVYLQMNSLKPEDTAVYYCNTDSRVRTWFRAFTYDSWGQGTQVTVSS | low polyreactivity
39 | QVQLVESGGGLVQAGGSLRLSCAASGSIFDDYAMGWYRQAPGKEREFVATITTSGGNTYYADSVKGRFTISRDNAKNTVYLQMHSLKPEDTAVYYCAKDRVKSPYLVYDSWGQGTQVTVSS | low polyreactivity
40 | QVQLVESGGGLVQAGGSLRLSCAASGSIFDDYAMGWYRQAPGKERELVAAITSGGSTYYADSVKGRFTISRDNAKNTVYLQMTSLKPEDTAVYYRATRYHWSSTFAPVGAGRGGDSWGQGTQVTVSS | low polyreactivity
41 | QVQLVESGGGLVQAGGSLRLSCAASGSIFDDYTMVWYRQAPGKEREFVATITSSGSTYYADSVKGRFTISRDNAKNTVYLQMNSLKPEDTAVYYCNADDTYYPLGGITGYDYWGQGTQVTVSS | low polyreactivity
42 | QVQLVESGGGLVQAGGSLRLSCAASGSIFDEYAMGWYRQAPGKERELVAAITRTGGRTYYADSVKGRFTISRDNAKNTVYLQMNSLKPEDTAVYYSAKGTNYRDDYWGQGTQVTVSS | low polyreactivity
43 | QVQLVESGGGLVQAGGSLRLSCAASGSIFDEYAMGWYRQAPGKERELVAAITYSGGDTYYADSVKGRFTISRDNAKNTVYLQMNSLKPEDTAVYYCAVDTPLEYYHQQAYVAGEYWGQGTQVTVSS | low polyreactivity
